The values that follow are results of earlier work, collected in patent US20260217837A1, “FGFR3 BINDING MOLECULES AND METHODS OF USE THEREOF” (Regeneron Pharmaceuticals, Inc., priority 2023, published 2026).

Read-outs that look alike come from different tables or passages of the source.

In the data set the test system is FGFR3.
Where [1] appears, read: Table T-1, exemplary FGFR3 parental antibodies of cited publications.
Where [2] appears, read: Exemplary FGFR3 D3 binding sequences, antibodies of cited PCT publications.

B1: FGA0007: anti-FGFR3 (S249C mutant) antibody of WO 2021/010326 A1; SEQ ID NO: 88/89 (antibody, V domains shown)
VH: QSVEESGGRLVTPGTPLTLTCTVSGFSLSSYPMSWVRQAPGKGLEWIGIISSSGRTYYASWAKGRFTISKASSTTAALKMTSLTTEDTATYFCARGGVYKYDDYGDYVLNLWGRGTLVTVSS
VL: AIEMTQTPFSVSAAVGGTVTINCQASENIYSNLAWYQQKPGQPPKLLIYAASYLASGVPSRFKGSGSGTDYTLTISGVQCADAATYYCQCTLYSSTYGVAFGGGTEVVVK
For the molecule B1, the Activity entry under setting [1] is listed as “Antagonistic”.

B2: MS-Pro-2: anti-FGFR3 Ig-like domain 2 antibody of WO 2002/102972 A2; SEQ ID NO: 24/25 (antibody, V domains shown)
VH: QVQLVQSGAEVKKPGASVKVSCKASGYTFTSYYMHWVRQAPGQGLEWMGWINPNSGGTNYAQKFQGRVTMTRDTSISTAYMELSSLRSEDTAVYYCARDFLGYEFDYWGQGTLVTVSS
VL: DIELTQPPSVSVAPGQTARISCSGDALGDKYASWYQQKPGQAPVLVIYDDSDRPSGIPERFSGSNSGNTATLTISGTQAEDEADYYCQSYDYSADYVFGGGTKLTVLGQ
For B2, under setting [1], the Activity entry is recorded as “Antagonistic”.

B3: MS-Pro-28: anti-FGFR3 Ig-like domain 3 antibody of WO 2002/102972 A2; SEQ ID NO: 38/39 (antibody, V domains shown)
VH: QVQLVQSGAEVKKPGSSVKVSCKASGGTFSSYAISWVRQAPGQGLEWMGGIIPIFGTANYAQKFQGRVTITADESSTAYMELSSLRSEDTAVYYCARGGGWVSHGYYYLFDLWGQGTLVTVSS
VL: DIQMTQSPSSLSASVGDRVTITCRASQGISSYLAWYQQKPGKAPKLLIYAASSLQSGVPSRFSGSGSGTDFTLTISSLQPEDFAVYYCFQYGSIPPTFGQGTKVEIKRT
B3: the Activity entry is “Antagonistic” under setting [2] and “Antagonistic” under setting [1].

B4: MS-Pro-26: anti-FGFR3 Ig-like domain 3 antibody of WO 2002/102972 A2; SEQ ID NO: 36/37 (antibody, V domains shown)
VH: QVQLVQSGAEVKKPGASVKVSCKASGYTFTSYYMHWVRQAPGQGLEWMGWINPNSGGTNYAQKFQGRVTMTRDTSISTAYMELSSLRSEDTAVYYCARGYWYAYFTYINYGYFDNWGQGTLVTVSS
VL: DIALTQPASVSGSPGQSITISCTGTSSDVGGYNYVSWYQQHPGKAPKLMIYDVSNRPSGVSNRFSGSKSGNTASLTISGLQAEDEADYYCQSYDNNSDWFGGGTKLTVLGQ
Turning to B4, the Activity entry reads like this: under setting [2], “Antagonistic”; under setting [1], “Antagonistic”.

B5: FGA0005: anti-FGFR3 (S249C mutant) antibody of WO 2021/010326 A1; SEQ ID NO: 86/87 (antibody, V domains shown)
VH: QSLEESGGRLVTPGTPLTLTCTASGFSLSTYWICWVRQAPGEGLEWIGYISSSGNTYYASWAKGRFTISKTSSTTVDLKMTSLTTEDTATYFCGGHNSDYITGWALDPWGPGTLVTVSS
VL: AAVLTQTASPMSAAVGGTVTINCQSSKSVYRDKWLSWFQQKPGQPPKLLIYGASNLASGVSSRFKGSGSGTQFTLTISDVQCDDAATYYCLGGYSDNSEDAFGGGTEVVVK
Consider B5, for which the Activity result under setting [1] is “Antagonistic”.

B6: FGA0002: anti-FGFR3 (S249C mutant) antibody of WO 2021/010326 A1; SEQ ID NO: 84/85 (antibody, V domains shown)
VH: QELVESGGGLVQPGGSLKLSCKASGIDFSSYGISWVRQAPGKGLEWIAYIVPGFGIRNYANSVKGRFTISSDNAQNTVFLQMTSLTASDTATYFCARVPQYASSSGYYLPFNLWGPGTLVTVSS
VL: ALVMTQTPSPVSAAVGGTVTINCQASEDIYYNLAWFQQKPGQPPKLLIYRASTLASGVPSRFSGSGSGTEFTLTISDVQCDDAATYYCLGVYTYISADGNAFGGGTEVVVK
For B6, under setting [1], the Activity entry is “Antagonistic”.

B7: MS-Pro-11: anti-FGFR3 Ig-like domain 3 antibody of WO 2002/102972 A2; SEQ ID NO: 30/31 (antibody, V domains shown)
VH: QVQLVQSGAEVKKPGASVKVSCKASGYTFTSYYMHWVRQAPGQGLEWMGWINPNSGGTNYAQKFQGRVTMTRDTSISTAYMELSSLRSEDTAVYYCARYYGSSLYHYVFGGFIDYWGQGTLVTVSS
VL: DIALTQPASVSGSPGQSITISCTGTSSDVGGYNYVSYQQHPGKAPKLMIYDVSNRPSGVSNRFSGSKSGNTASLTISGLQAEDEADYYCQSHHFYEVFGGGTKLTVLGQ
Regarding B7, the Activity result under setting [2] is “Antagonistic” and the Activity result under setting [1] is recorded as “Antagonistic”.

B8: MS-Pro-29: anti-FGFR3 Ig-like domain 3 antibody of WO 2002/102972 A2; SEQ ID NO: 40/41 (antibody, V domains shown)
VH: QVQLVQSGAEVKKPGASVKVSCKASGYTFTSYYMHWVRQAPGQGLEWMGWINPNSGGTNYAQKFQGRVTMTRDTSISTAYMELSSLRSEDTAVYYCARTWQYSYFYYLDGGYYFDIWGQGTLVTVSS
VL: DIVLTQSPATLSLSPGERATLSCRASQSVSSSYLAWYQQKPGQAPRLLIYGASSRATGVPARFSGSGSGTDFTLTISSLEPEDFATYYCQQTNNAPVTFGQGTKVEIKRT
B8: the Activity result is listed as “Antagonistic” under setting [2] and “Antagonistic” under setting [1].
